T1: Chryseobacterium sp-62563 deamidase polypeptide (second polypeptide, deamidase domain), wildtype (Chryseobacterium sp-62563)
T1 sequence: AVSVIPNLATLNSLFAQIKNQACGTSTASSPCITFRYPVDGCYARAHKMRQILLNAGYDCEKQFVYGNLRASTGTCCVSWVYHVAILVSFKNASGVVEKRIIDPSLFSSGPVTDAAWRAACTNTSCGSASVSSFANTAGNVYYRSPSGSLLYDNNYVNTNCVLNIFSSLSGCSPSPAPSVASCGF

B1: Chryseobacterium sp-62563 propeptide V25C (protein)
chain: NQDPNLVAKESNETAMKDFGKTVPCGIEKEDGKFKISFMVTAQPYEIKDSKENAAYISMIKTAVENETPIHVFLKANTNEIAKVDKATDDDIRYFKSVFTKEVKEENRK
B2: Chryseobacterium sp-62563 propeptide K101W (protein)
chain: NQDPNLVAKESNETAMKDFGKTVPVGIEKEDGKFKISFMVTAQPYEIKDSKENAAYISMIKTAVENETPIHVFLKANTNEIAKVDKATDDDIRYFKSVFTWEVKEENRK
B3: Chryseobacterium sp-62563 propeptide K101N (protein)
chain: NQDPNLVAKESNETAMKDFGKTVPVGIEKEDGKFKISFMVTAQPYEIKDSKENAAYISMIKTAVENETPIHVFLKANTNEIAKVDKATDDDIRYFKSVFTNEVKEENRK
B4: Chryseobacterium sp-62563 propeptide K101G (protein)
chain: NQDPNLVAKESNETAMKDFGKTVPVGIEKEDGKFKISFMVTAQPYEIKDSKENAAYISMIKTAVENETPIHVFLKANTNEIAKVDKATDDDIRYFKSVFTGEVKEENRK
B5: Chryseobacterium sp-62563 propeptide K101Y (protein)
chain: NQDPNLVAKESNETAMKDFGKTVPVGIEKEDGKFKISFMVTAQPYEIKDSKENAAYISMIKTAVENETPIHVFLKANTNEIAKVDKATDDDIRYFKSVFTYEVKEENRK
B6: Chryseobacterium sp-62563 propeptide K21G (protein)
chain: NQDPNLVAKESNETAMKDFGGTVPVGIEKEDGKFKISFMVTAQPYEIKDSKENAAYISMIKTAVENETPIHVFLKANTNEIAKVDKATDDDIRYFKSVFTKEVKEENRK
B7: Chryseobacterium sp-62563 propeptide N1C (protein)
chain: CQDPNLVAKESNETAMKDFGKTVPVGIEKEDGKFKISFMVTAQPYEIKDSKENAAYISMIKTAVENETPIHVFLKANTNEIAKVDKATDDDIRYFKSVFTKEVKEENRK
B8: Chryseobacterium sp-62563 propeptide D18M (protein)
chain: NQDPNLVAKESNETAMKMFGKTVPVGIEKEDGKFKISFMVTAQPYEIKDSKENAAYISMIKTAVENETPIHVFLKANTNEIAKVDKATDDDIRYFKSVFTKEVKEENRK
B9: Chryseobacterium sp-62563 propeptide K101S (protein)
chain: NQDPNLVAKESNETAMKDFGKTVPVGIEKEDGKFKISFMVTAQPYEIKDSKENAAYISMIKTAVENETPIHVFLKANTNEIAKVDKATDDDIRYFKSVFTSEVKEENRK
B10: Chryseobacterium sp-62563 propeptide K101P (protein)
chain: NQDPNLVAKESNETAMKDFGKTVPVGIEKEDGKFKISFMVTAQPYEIKDSKENAAYISMIKTAVENETPIHVFLKANTNEIAKVDKATDDDIRYFKSVFTPEVKEENRK
B11: Chryseobacterium sp-62563 propeptide K101I (protein)
chain: NQDPNLVAKESNETAMKDFGKTVPVGIEKEDGKFKISFMVTAQPYEIKDSKENAAYISMIKTAVENETPIHVFLKANTNEIAKVDKATDDDIRYFKSVFTIEVKEENRK
B12: Chryseobacterium sp-62563 propeptide V23Y (protein)
chain: NQDPNLVAKESNETAMKDFGKTYPVGIEKEDGKFKISFMVTAQPYEIKDSKENAAYISMIKTAVENETPIHVFLKANTNEIAKVDKATDDDIRYFKSVFTKEVKEENRK
B13: Chryseobacterium sp-62563 propeptide D18R (protein)
chain: NQDPNLVAKESNETAMKRFGKTVPVGIEKEDGKFKISFMVTAQPYEIKDSKENAAYISMIKTAVENETPIHVFLKANTNEIAKVDKATDDDIRYFKSVFTKEVKEENRK
B14: Chryseobacterium sp-62563 propeptide M16G (protein)
chain: NQDPNLVAKESNETAGKDFGKTVPVGIEKEDGKFKISFMVTAQPYEIKDSKENAAYISMIKTAVENETPIHVFLKANTNEIAKVDKATDDDIRYFKSVFTKEVKEENRK
B15: Chryseobacterium sp-62563 propeptide D18P (protein)
chain: NQDPNLVAKESNETAMKPFGKTVPVGIEKEDGKFKISFMVTAQPYEIKDSKENAAYISMIKTAVENETPIHVFLKANTNEIAKVDKATDDDIRYFKSVFTKEVKEENRK
B16: Chryseobacterium sp-62563 propeptide K109G (protein)
chain: NQDPNLVAKESNETAMKDFGKTVPVGIEKEDGKFKISFMVTAQPYEIKDSKENAAYISMIKTAVENETPIHVFLKANTNEIAKVDKATDDDIRYFKSVFTKEVKEENRG
B17: Chryseobacterium sp-62563 propeptide F19P (protein)
chain: NQDPNLVAKESNETAMKDPGKTVPVGIEKEDGKFKISFMVTAQPYEIKDSKENAAYISMIKTAVENETPIHVFLKANTNEIAKVDKATDDDIRYFKSVFTKEVKEENRK
B18: Chryseobacterium sp-62563 propeptide K101L (protein)
chain: NQDPNLVAKESNETAMKDFGKTVPVGIEKEDGKFKISFMVTAQPYEIKDSKENAAYISMIKTAVENETPIHVFLKANTNEIAKVDKATDDDIRYFKSVFTLEVKEENRK
B19: Chryseobacterium sp-62563 propeptide D18K (protein)
chain: NQDPNLVAKESNETAMKKFGKTVPVGIEKEDGKFKISFMVTAQPYEIKDSKENAAYISMIKTAVENETPIHVFLKANTNEIAKVDKATDDDIRYFKSVFTKEVKEENRK
B20: Chryseobacterium sp-62563 propeptide F19L (protein)
chain: NQDPNLVAKESNETAMKDLGKTVPVGIEKEDGKFKISFMVTAQPYEIKDSKENAAYISMIKTAVENETPIHVFLKANTNEIAKVDKATDDDIRYFKSVFTKEVKEENRK
B21: Chryseobacterium sp-62563 propeptide K101E (protein)
chain: NQDPNLVAKESNETAMKDFGKTVPVGIEKEDGKFKISFMVTAQPYEIKDSKENAAYISMIKTAVENETPIHVFLKANTNEIAKVDKATDDDIRYFKSVFTEEVKEENRK
B22: Chryseobacterium sp-62563 propeptide K101M (protein)
chain: NQDPNLVAKESNETAMKDFGKTVPVGIEKEDGKFKISFMVTAQPYEIKDSKENAAYISMIKTAVENETPIHVFLKANTNEIAKVDKATDDDIRYFKSVFTMEVKEENRK
B23: Chryseobacterium sp-62563 propeptide D18G (protein)
chain: NQDPNLVAKESNETAMKGFGKTVPVGIEKEDGKFKISFMVTAQPYEIKDSKENAAYISMIKTAVENETPIHVFLKANTNEIAKVDKATDDDIRYFKSVFTKEVKEENRK

What follows are binders tested against T1, Chryseobacterium sp-62563 deamidase polypeptide (second polypeptide, deamidase domain), wildtype (Chryseobacterium sp-62563) (assay: cell-based or functional assay).
B1 gave a Relative activity of maturated deamidase (% initial rate) of 96. B2 was tested, and the Relative activity of maturated deamidase (% initial rate) was 54. B3 gave a Relative activity of maturated deamidase (% initial rate) of 29. B4 showed a Relative activity of maturated deamidase (% initial rate) of 34. B5 was tested, and the Relative activity of maturated deamidase (% initial rate) was 46. With B6 the Leakage activity was 0% and the Relative activity of maturated deamidase (% initial rate) was 53. B7 was tested, and the Leakage activity was 0% and the Relative activity of maturated deamidase (% initial rate) was 27. Work on B8 yielded a Leakage activity of 0% and a Relative activity of maturated deamidase (% initial rate) of 34. Binder B9 has a Relative activity of maturated deamidase (% initial rate) of 29. B10 gave a Relative activity of maturated deamidase (% initial rate) of 36. For B11, the Relative activity of maturated deamidase (% initial rate) was 38. B12 was tested, and the Leakage activity was 0% and the Relative activity of maturated deamidase (% initial rate) was 56. With B13 the Leakage activity was 0% and the Relative activity of maturated deamidase (% initial rate) was 51. With B14 the Leakage activity was 0% and the Relative activity of maturated deamidase (% initial rate) was 27. In the case of B15, the Leakage activity is reported as 0% and the Relative activity of maturated deamidase (% initial rate) is reported as 66. B16 was tested, and the Leakage activity was 0% and the Relative activity of maturated deamidase (% initial rate) was 29. Binder B17 has a Leakage activity of 3% and a Relative activity of maturated deamidase (% initial rate) of 71. B18 showed a Relative activity of maturated deamidase (% initial rate) of 41. B19 was tested, and the Leakage activity was 5% and the Relative activity of maturated deamidase (% initial rate) was 37. B20 showed a Relative activity of maturated deamidase (% initial rate) of 33. For B21, the Relative activity of maturated deamidase (% initial rate) was 45. B22 was tested, and the Relative activity of maturated deamidase (% initial rate) was 29. Binder B23 has a Leakage activity of 0% and a Relative activity of maturated deamidase (% initial rate) of 62.

Source: patent publication US20250215412A1 (NOVOZYMES A S, published 2025)
